Experimental data taken from US20120165211A1, “Human Antibodies Cross-Reacting With A Bacterial And A Self Antigen From Atherosclerotic Plaques” (priority 2007, published 2012).

Key:
[1] = molecular target: T1, recombinant transgelin (rTAGLN-Origene cod: TP302448) (human, UniProt Q01995 1-201); experiment: western blot on human transgelin (referred back to)
T1 construct: also called commercial transgelin 1; human transgelin

[2] = molecular target: T2, transgelin 1 (SM22) from coronary plaque lysate (human, UniProt Q01995 2-201); experiment: 2D electrophoresis western blot of coronary plaque lysate with 7816FLAG, spots identified by MALDI-ToF
T2 construct: also called TAGLN; spots C1 and C2
T2 sequence (Q01995 2-201 limits assumed): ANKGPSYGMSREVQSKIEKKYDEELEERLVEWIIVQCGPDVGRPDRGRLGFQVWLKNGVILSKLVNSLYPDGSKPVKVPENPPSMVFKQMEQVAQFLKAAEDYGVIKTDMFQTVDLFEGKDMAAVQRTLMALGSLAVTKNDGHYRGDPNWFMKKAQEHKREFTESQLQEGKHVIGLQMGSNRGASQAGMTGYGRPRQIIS

[3] = molecular target: T1, recombinant transgelin (rTAGLN-Origene …); experiment: western blot on recombinant transgelin
[4] = molecular target: T3, recombinant transgelin (rTAGLN) (Homo sapiens, UniProt Q01995); format: binding; details: 4-500 ng rTAGLN per well
T3 construct: purchased Origene TP302448
T3 sequence (Q01995 whole entry): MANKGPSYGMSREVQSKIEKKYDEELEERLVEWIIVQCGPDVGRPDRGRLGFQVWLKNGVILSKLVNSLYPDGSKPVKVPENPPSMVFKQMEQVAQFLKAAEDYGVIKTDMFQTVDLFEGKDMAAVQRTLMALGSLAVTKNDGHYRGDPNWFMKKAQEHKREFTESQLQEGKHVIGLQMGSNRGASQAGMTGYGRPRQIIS

[5] = molecular target: T4, ompK36 (Klebsiella pneumoniae, UniProt Q48473); experiment: ELISA of 7816 IgG against coated ompK36; format: binding; details: full IgG1, 9 μg/ml; 8 μg OmpK36 coated; read at 450 nm
T4 construct: 6xHis (N); made in house; host or cells: E. coli BL21 (DE3), pET28b
Method: 8 μg of OmpK36 was coated on a 96 well ELISA plate in PBS, pH 5.0, overnight at 4° C. The day after, after three washes with PBS, the plate was blocked with PBS/BSA 1%, and purified 7816IgGs were added (9 μg/ml) to each well. After washing three timed with PBS/tween-20 0.1%, an anti-Human Fc antibody-HRP (SIGMA-Aldrich—diluted 1:8000), was added and incubated for 45-60 min. at 37° C. After five washes with PBS/Tween-20 0.1% 40 μL of TMB solution (Pierce) in every well was added and incubated for 15 min. at 37° C. After addition of 40 μl of Stop Solution (H2SO4 0.1 M) in every well the plates were read at 450 nm.

[6] = molecular target: T5, purified OmpK36 (Klebsiella pneumoniae, UniProt Q48473); experiment: Western blot of purified OmpK36 with recombinant Fabs; format: binding; details: 400 ng OmpK36His per lane; Fabs at 10 μg/L; blocking PBS/BSA10%
T5 construct: made in house; host or cells: E. coli BL21 (DE3), pET28b (BamHI/XhoI cloning)
Method: 400 ng of purified OmpK36His was loaded on polyacrylamide gel (all lanes) and SDS-PAGE was performed. Proteins were blotted on PVDF membrane for 2 h at 350 mA. After blocking with PBS/BSA10% the membrane was cut to single lanes and each lane was incubated for 1 h with Fabs at 10 μg/L. After three washes membrane was incubated with anti-Human Light Chain K antibody (Sigma).

T1 sequence (Q01995 whole entry): as above

B1: Fab 7816 (Fab, V domains shown)
VH: LESGPGQVKPSQTLSLTCTVSGGSIGSGSYSWNWIRQPAGRGLEWIGRISDSGNTNFNPSLKSRVTMSVDTSKNQFALKLTSVTAADTATYFCARGRGILTGLFDYWGQGSLVSVSS
VL: SPDSLAVSPGGRATIKCASSQSVLDNSNHKNSLAWYQQKPGLPPKLLIYWASTRYSGVPDRFSGSGSGTDFTLTINNLQAADVAVYFCQQYYSTPWTFGQGTKVE
notes: also called Fab E7816
- binding result [1]: binds

B2: Fab 1630 (Fab, V domains shown)
VH: GGGLVKPGGSLRLSCTASGFTFSNGWMSWVRQAPGKGLEWVGRIRSNPDGGTTDYAAPFKGRFTISRDDSKNTLFLQVTSLKTEDTGVYYCITDRGDWKWGVPRDLTYWGQGTLVTVSS
VL: MAELTQSPDTLSLSPGERATLSCRASQSVDSNYLAWFQQKPGQAPRLLIYGAYSRATGIPDRFSGSGSGTDFTLTISRLEPEDFVVYYCQQYLSPPITFGQGTRLETKR
- binding result [1]: binds

B3: 7816Fab-FLAG (Fab, V domains shown)
VH: LESGPGQVKPSQTLSLTCTVSGGSIGSGSYSWNWIRQPAGRGLEWIGRISDSGNTNFNPSLKSRVTMSVDTSKNQFALKLTSVTAADTATYFCARGRGILTGLFDYWGQGSLVSVSS
VL: SPDSLAVSPGGRATIKCASSQSVLDNSNHKNSLAWYQQKPGLPPKLLIYWASTRYSGVPDRFSGSGSGTDFTLTINNLQAADVAVYFCQQYYSTPWTFGQGTKVE
- binding result [2]: binds

B4: IgG7816 (antibody, V domains shown)
VH: LESGPGQVKPSQTLSLTCTVSGGSIGSGSYSWNWIRQPAGRGLEWIGRISDSGNTNFNPSLKSRVTMSVDTSKNQFALKLTSVTAADTATYFCARGRGILTGLFDYWGQGSLVSVSS
VL: SPDSLAVSPGGRATIKCASSQSVLDNSNHKNSLAWYQQKPGLPPKLLIYWASTRYSGVPDRFSGSGSGTDFTLTINNLQAADVAVYFCQQYYSTPWTFGQGTKVE
- binding result [3]: binds

B5: IgG7816: heavy and light chains of Fab 7816 cloned in pAc-k-Fc vector, expressed as IgG in Sf9 insect cells (antibody, V domains shown)
VH: LESGPGQVKPSQTLSLTCTVSGGSIGSGSYSWNWIRQPAGRGLEWIGRISDSGNTNFNPSLKSRVTMSVDTSKNQFALKLTSVTAADTATYFCARGRGILTGLFDYWGQGSLVSVSSASTKGPSVFPLAPSSKSTSGGTAALGCLVKD
VL: SPDSLAVSPGGRATIKCASSQSVLDNSNHKNSLAWYQQKPGLPPKLLIYWASTRYSGVPDRFSGSGSGTDFTLTINNLQAADVAVYFCQQYYSTPWTFGQGTKVE
- binding to human transgelin in Western blot [4]: positive band is visible
- binding to ompK36 in ELISA [5]: binds specifically to ompK36

B6: Fab1630: human recombinant Fab from plaque 12 library (ID12LIB); HC SEQ ID NO:10, LC SEQ ID NO:12 (antibody, listed as Homo sapiens)
heavy: GGGLVKPGGSLRLSCTASGFTFSNGWMSWVRQAPGKGLEWVGRIRSNPDGGTTDYAAPFKGRFTISRDDSKNTLFLQVTSLKTEDTGVYYCITDRGDWKWGVPRDLTYWGQGTLVTVSSASTKGPSVFPLAPSSKSTSGGTAALGCLVKDYFPEPVTV
light: AMAELTQSPDTLSLSPGERATLSCRASQSVDSNYLAWFQQKPGQAPRLLIYGAYSRATGIPDRFSGSGSGTDFTLTISRLEPEDFVVYYCQQYLSPPITFGQGTRLETKRTVAAPSVFIFPPSD
- binding to human transgelin in Western blot [4]: recognize human transgelin
- reactivity with purified OmpK36 in western-blot [6]: react with purified OmpK36

B7: Fab 248: human recombinant Fab; heavy chain SEQ ID NO:14, light chain SEQ ID NO:16 (antibody, listed as Homo sapiens)
heavy: LESGGGLVKPGGSLRLSCAASGFTFSDYYMSWIRQAPGKGLEFISYISSGGDTIHHADSVKGRFTISRDNAKKSLYLQMNSLRVEDTAVYYCACRGVWGQGT
light: SPATVSVSPGERATLSCRASQSISFHLAWYQQKPGQAPSLLIYGTSTRATGIPARFSGSGSGTEFTLTISSLQSEDSAVYYCQQYHNWPPLTFGGGT
- reactivity with purified OmpK36 in western-blot [6]: react with purified OmpK36
